These are literature values, as cited in PMC4452855.

By Kd is commonly meant the concentration at which binding is half-saturated.

The target in this data set is IFN-λ1 (Homo sapiens) (UniProt Q8IU54).
UniProt Q8IU54, sequence (Q8IU54 20-200): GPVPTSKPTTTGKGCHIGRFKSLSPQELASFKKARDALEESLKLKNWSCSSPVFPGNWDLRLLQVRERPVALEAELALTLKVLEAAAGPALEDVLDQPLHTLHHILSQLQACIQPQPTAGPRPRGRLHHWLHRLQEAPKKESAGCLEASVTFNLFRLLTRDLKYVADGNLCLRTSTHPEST

For “sIFN-λR1 short splice variant (from UniProt Q8IU57)”, the Kd was 0.073 µM.
